According to the supplement of paper PMC9112550, “Optimization of the antimicrobial peptide Bac7 by deep mutational scanning” (BMC Biology, 2022):

Each sequence was assayed on Escherichia coli TOP10 (assay: shrunken log2 fold change of peptide-encoding DNA abundance (4.5 h post-induction vs induction); higher = less antimicrobial activity (less host growth inhibition)). Details: time post-induction: 4.5 h; library: site-saturation at positions 5, 18, 19, 20.
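Note: peptides expressed intracellularly from a pBAD plasmid library in pooled LB shake-flask culture, induced with 0.3% L-arabinose, DNA abundance read by NGS, three biological replicates, DESeq2 with apeglm shrinkage.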

In order of falling “shrunken log2 fold change” value:
1. RRIRGRPPRLPRPRPRPPQMPRP  1.77
2. RRIRGRPPRLPRPRPRPAPAPRP  1.14
3. RRIRDRPPRLPRPRPRPVGWPRP  0.945
4. RRIRWRPPRLPRPRPRPPPDPRP  0.906
5. RRIRRRPPRLPRPRPRPVARPRP  0.896
6. RRIRKRPPRLPRPRPRPRSAPRP  0.884
7. RRIRPRPPRLPRPRPRPKHAPRP  0.824
8. RRIRDRPPRLPRPRPRPAAGPRP  0.793
9. RRIRSRPPRLPRPRPRPLPKPRP  0.493
10. RRIRWRPPRLPRPRPRPELLPRP  0.485
11. RRIRARPPRLPRPRPRPRVAPRP  0.46
12. RRIRWRPPRLPRPRPRPTQPPRP  0.398
13. RRIRMRPPRLPRPRPRPRISPRP  0.395
14. RRIRGRPPRLPRPRPRPKLVPRP  0.326
15. RRIRSRPPRLPRPRPRPVEWPRP  0.31
16. RRIRARPPRLPRPRPRPGILPRP  0.287
17. RRIRERPPRLPRPRPRPVGRPRP  0.233
18. RRIRARPPRLPRPRPRPTQPPRP  0.228
19. RRIRKRPPRLPRPRPRPSKNPRP  0.219
20. RRIRFRPPRLPRPRPRPRGMPRP  0.2
21. RRIRFRPPRLPRPRPRPTPMPRP  0.178
22. RRIRSRPPRLPRPRPRPATQPRP  0.168
23. RRIRCRPPRLPRPRPRPAWSPRP  0.15
24. RRIRPRPPRLPRPRPRPLDAPRP  0.131
25. RRIRPRPPRLPRPRPRPVVRPRP  0.116
26. RRIRGRPPRLPRPRPRPDYLPRP  0.115
27. RRIRDRPPRLPRPRPRPIPWPRP  0.077
28. RRIRPRPPRLPRPRPRPTEKPRP  0.0615
29. RRIRERPPRLPRPRPRPTFVPRP  0.0579
30. RRIRHRPPRLPRPRPRPYQNPRP  0.0439
31. RRIRHRPPRLPRPRPRPADPPRP  0.0438
32. RRIRPRPPRLPRPRPRPAEKPRP  0.0387
33. RRIRMRPPRLPRPRPRPVKWPRP  0.0346
34. RRIRERPPRLPRPRPRPMEWPRP  0.0338
35. RRIRRRPPRLPRPRPRPWNQPRP  0.0251
36. RRIRRRPPRLPRPRPRPDTEPRP  0.0209
37. RRIRKRPPRLPRPRPRPFVRPRP  0.00981
38. RRIRPRPPRLPRPRPRPGKKPRP  0.00372
39. RRIRLRPPRLPRPRPRPYDSPRP  0.00122
40. RRIRMRPPRLPRPRPRPMDYPRP  -0.00149
41. RRIRWRPPRLPRPRPRPCDSPRP  -0.00192
42. RRIRHRPPRLPRPRPRPLTGPRP  -0.00273
43. RRIRFRPPRLPRPRPRPLVAPRP  -0.00793
44. RRIRIRPPRLPRPRPRPMRWPRP  -0.0141
45. RRIRRRPPRLPRPRPRPDWWPRP  -0.0208
46. RRIRVRPPRLPRPRPRPNRKPRP  -0.0231
47. RRIRQRPPRLPRPRPRPPKQPRP  -0.0279
48. RRIRYRPPRLPRPRPRPVTFPRP  -0.0285
49. RRIRNRPPRLPRPRPRPCFDPRP  -0.0482
50. RRIRFRPPRLPRPRPRPSGTPRP  -0.0628
51. RRIRHRPPRLPRPRPRPPTYPRP  -0.0835
52. RRIRIRPPRLPRPRPRPLQHPRP  -0.121
53. RRIRCRPPRLPRPRPRPNMGPRP  -0.14
54. RRIRLRPPRLPRPRPRPSGGPRP  -0.153
55. RRIRIRPPRLPRPRPRPRHYPRP  -0.177
56. RRIRERPPRLPRPRPRPRFLPRP  -0.18
57. RRIRPRPPRLPRPRPRPENVPRP  -0.2
58. RRIRMRPPRLPRPRPRPEYYPRP  -0.218
59. RRIRYRPPRLPRPRPRPENQPRP  -0.222
60. RRIRVRPPRLPRPRPRPDIPPRP  -0.263
61. RRIRSRPPRLPRPRPRPSQCPRP  -0.265
62. RRIRYRPPRLPRPRPRPWFVPRP  -0.271
63. RRIRQRPPRLPRPRPRPCSMPRP  -0.273
64. RRIRSRPPRLPRPRPRPQPEPRP  -0.279
65. RRIRIRPPRLPRPRPRPSHAPRP  -0.283
66. RRIRDRPPRLPRPRPRPCPMPRP  -0.292
67. RRIRNRPPRLPRPRPRPPCQPRP  -0.294
68. RRIRSRPPRLPRPRPRPTTYPRP  -0.359
69. RRIRWRPPRLPRPRPRPFIEPRP  -0.441
70. RRIRVRPPRLPRPRPRPCKLPRP  -0.453
71. RRIRLRPPRLPRPRPRPYPDPRP  -0.598
72. RRIRHRPPRLPRPRPRPNLHPRP  -0.759
73. RRIRYRPPRLPRPRPRPGSSPRP  -0.853
74. RRIRFRPPRLPRPRPRPYTNPRP  -1.17
75. RRIRYRPPRLPRPRPRPSNNPRP  -1.42
